Four molecules from US20260217833A1 (APTEVO RESEARCH AND DEVELOPMENT, published 2026) can be followed below.

One test deals with T1, Human PD-L1 full-length (human, UniProt Q9NZQ7 19-290).
T1 construct: also called PDL01021; CHOK1SV/huPDL1
The experiment in a line: flow cytometry, CHOK1SV/human PD-L1 cells.

A further test concerns the target T2, human CD40 full-length (human, UniProt P25942 21-277).
T2 construct: Also used for CD40 of Daudi cells, of CD40-expressing HEK293 cells and of the BPS CD40/NFkB HEK293 reporter cells where the row says so; also called CD4001012; CHOK1SV/CD40
The experiment in a line: flow cytometry, CHOK1SV/human CD40 cells.

T1 sequence (Q9NZQ7 19-290): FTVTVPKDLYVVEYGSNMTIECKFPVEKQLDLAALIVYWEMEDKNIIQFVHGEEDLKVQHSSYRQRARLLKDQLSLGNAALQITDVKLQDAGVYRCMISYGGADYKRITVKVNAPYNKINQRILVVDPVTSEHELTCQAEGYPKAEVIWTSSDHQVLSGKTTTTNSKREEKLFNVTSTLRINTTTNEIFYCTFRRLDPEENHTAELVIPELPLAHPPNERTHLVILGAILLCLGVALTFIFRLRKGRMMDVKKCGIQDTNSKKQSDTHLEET

B1: CD4001048 (bispecific antibody)
scFv-Fc-scFv chain: DVVMTQTPLSLPVSLGDQASISCRSSQSLVHYNGYTYLHWYLQKPGQSPKLLIYKVSNRFSGVPDRFSGSGSGTDFTLKISRVEAEDLGVYFCSQTTHVPLTFGAGTKLELRGGGGSGGGGSGGGGSGGGGSEVMLVESGGGLVKPGGSLKLSCAASGFTFSSYAMSWVRQTPERRLEWVASISSAGTYIYYPDSVKGRFTISRDNAKNILYLQMNSLRSEDTAMYYCARHGNGYDPLWYFDVWGAGTTVTVSSEPKSSDKTHTCPPCPAPPAAAPSVFLFPPKPKDTLMISRTPEVTCVVVDVSHEDPEVKFNWYVDGVEVHNAKTKPREEQYNSTYRVVSVLTVLHQDWLNGKEYKCAVSNKALPAPIEKTISKAKGQPREPQVYTLPPSRDELTKNQVSLTCLVKGFYPSDIAVEWESNGQPENNYKTTPPVLDSDGSFFLYSKLTVDKSRWQQGNVFSCSVMHEALHNHYTQKSLSLSPGGGGSPSEVQLVESGGGLVKPGGSLRLSCAASGFTFSDYGMAWVRQAPGKGLEWVAFITSLAYIIYYADSVKGRFTISRDNAKNSLYLQMNSLRAEDTAVYYCARNYGSSPYYFDYWGQGTLVTVSSGGGGSGGGGSGGGGSGGGGSDIQMTQSPSSLSASVGDRVTITCRASQDINKFLSWYQQKPGKAPKLLIHYTSSLQPGVPSRFSGSGSGTDFTLTISSLQPEDFATYYCLQYDNLYTFGQGTKLEIK
notes: also called CD40_5B9 x hFc x PDL_5F9
For B1, the binding result with Human PD-L1 full-length and in the test with human CD40 full-length was “binds” throughout.

B2: CD4001074 (bispecific antibody)
CD40_5B9 x Fc-Knob: DVVMTQTPLSLPVSLGDQASISCRSSQSLVHYNGYTYLHWYLQKPGQSPKLLIYKVSNRFSGVPDRFSGSGSGTDFTLKISRVEAEDLGVYFCSQTTHVPLTFGAGTKLELRGGGGSGGGGSGGGGSGGGGSEVMLVESGGGLVKPGGSLKLSCAASGFTFSSYAMSWVRQTPERRLEWVASISSAGTYIYYPDSVKGRFTISRDNAKNILYLQMNSLRSEDTAMYYCARHGNGYDPLWYFDVWGAGTTVTVSSEPKSSDKTHTCPPCPAPPAAAPSVFLFPPKPKDTLMISRTPEVTCVVVDVSHEDPEVKFNWYVDGVEVHNAKTKPREEQYNSTYRVVSVLTVLHQDWLNGKEYKCAVSNKALPAPIEKTISKAKGQPREPQVYTLPPSRDELTKNQVSLWCLVKGFYPSDIAVEWESNGQPENNYKTTPPVLDSDGSFFLYSKLTVDKSRWQQGNVFSCSVMHEALHNHYTQKSLSLSPG
CD40_5B9 x Fc-Hole x PDL_5F9: DVVMTQTPLSLPVSLGDQASISCRSSQSLVHYNGYTYLHWYLQKPGQSPKLLIYKVSNRFSGVPDRFSGSGSGTDFTLKISRVEAEDLGVYFCSQTTHVPLTFGAGTKLELRGGGGSGGGGSGGGGSGGGGSEVMLVESGGGLVKPGGSLKLSCAASGFTFSSYAMSWVRQTPERRLEWVASISSAGTYIYYPDSVKGRFTISRDNAKNILYLQMNSLRSEDTAMYYCARHGNGYDPLWYFDVWGAGTTVTVSSEPKSSDKTHTCPPCPAPPAAAPSVFLFPPKPKDTLMISRTPEVTCVVVDVSHEDPEVKFNWYVDGVEVHNAKTKPREEQYNSTYRVVSVLTVLHQDWLNGKEYKCAVSNKALPAPIEKTISKAKGQPREPQVYTLPPSRDELTKNQVSLSCAVKGFYPSDIAVEWESNGQPENNYKTTPPVLDSDGSFFLVSKLTVDKSRWQQGNVFSCSVMHEALHNRFTQKSLSLSPGGGGSPSEVQLVESGGGLVKPGGSLRLSCAASGFTFSDYGMAWVRQAPGKGLEWVAFITSLAYIIYYADSVKGRFTISRDNAKNSLYLQMNSLRAEDTAVYYCARNYGSSPYYFDYWGQGTLVTVSSGGGGSGGGGSGGGGSGGGGSDIQMTQSPSSLSASVGDRVTITCRASQDINKFLSWYQQKPGKAPKLLIHYTSSLQPGVPSRFSGSGSGTDFTLTISSLQPEDFATYYCLQYDNLYTFGQGTKLEIK
B2: the binding result with Human PD-L1 full-length is recorded as “binds”. For the same molecule, in the test with human CD40 full-length, the “EC50 (read off the curve)” value was around 2 nM.

B3: CD4001065 (PDL_5F9 x hFc x CD40_5B9) (bispecific antibody)
chain: EVQLVESGGGLVKPGGSLRLSCAASGFTFSDYGMAWVRQAPGKGLEWVAFITSLAYIIYYADSVKGRFTISRDNAKNSLYLQMNSLRAEDTAVYYCARNYGSSPYYFDYWGQGTLVTVSSGGGGSGGGGSGGGGSGGGGSDIQMTQSPSSLSASVGDRVTITCRASQDINKFLSWYQQKPGKAPKLLIHYTSSLQPGVPSRFSGSGSGTDFTLTISSLQPEDFATYYCLQYDNLYTFGQGTKLEIKEPKSSDKTHTCPPCPAPPAAAPSVFLFPPKPKDTLMISRTPEVTCVVVDVSHEDPEVKFNWYVDGVEVHNAKTKPREEQYNSTYRVVSVLTVLHQDWLNGKEYKCAVSNKALPAPIEKTISKAKGQPREPQVYTLPPSRDELTKNQVSLTCLVKGFYPSDIAVEWESNGQPENNYKTTPPVLDSDGSFFLYSKLTVDKSRWQQGNVFSCSVMHEALHNHYTQKSLSLSPGGGGSPSDVVMTQTPLSLPVSLGDQASISCRSSQSLVHYNGYTYLHWYLQKPGQSPKLLIYKVSNRFSGVPDRFSGSGSGTDFTLKISRVEAEDLGVYFCSQTTHVPLTFGAGTKLELRGGGGSGGGGSGGGGSGGGGSEVMLVESGGGLVKPGGSLKLSCAASGFTFSSYAMSWVRQTPERRLEWVASISSAGTYIYYPDSVKGRFTISRDNAKNILYLQMNSLRSEDTAMYYCARHGNGYDPLWYFDVWGAGTTVTVSS
notes: ADAPTIR format, anti-PD-L1 scFv on N-terminus, anti-CD40 scFv on C-terminus; also called CD4001065 (5B9)
With B3, the binding result with Human PD-L1 full-length and in the test with human CD40 full-length was “binds” throughout.

B4: CD4001068 (bispecific antibody)
PDL_5F9 x Fc-Knob: EVQLVESGGGLVKPGGSLRLSCAASGFTFSDYGMAWVRQAPGKGLEWVAFITSLAYIIYYADSVKGRFTISRDNAKNSLYLQMNSLRAEDTAVYYCARNYGSSPYYFDYWGQGTLVTVSSGGGGSGGGGSGGGGSGGGGSDIQMTQSPSSLSASVGDRVTITCRASQDINKFLSWYQQKPGKAPKLLIHYTSSLQPGVPSRFSGSGSGTDFTLTISSLQPEDFATYYCLQYDNLYTFGQGTKLEIKEPKSSDKTHTCPPCPAPPAAAPSVFLFPPKPKDTLMISRTPEVTCVVVDVSHEDPEVKFNWYVDGVEVHNAKTKPREEQYNSTYRVVSVLTVLHQDWLNGKEYKCAVSNKALPAPIEKTISKAKGQPREPQVYTLPPSRDELTKNQVSLWCLVKGFYPSDIAVEWESNGQPENNYKTTPPVLDSDGSFFLYSKLTVDKSRWQQGNVFSCSVMHEALHNHYTQKSLSLSPG
CD40_5B9 x Fc-Hole: DVVMTQTPLSLPVSLGDQASISCRSSQSLVHYNGYTYLHWYLQKPGQSPKLLIYKVSNRFSGVPDRFSGSGSGTDFTLKISRVEAEDLGVYFCSQTTHVPLTFGAGTKLELRGGGGSGGGGSGGGGSGGGGSEVMLVESGGGLVKPGGSLKLSCAASGFTFSSYAMSWVRQTPERRLEWVASISSAGTYIYYPDSVKGRFTISRDNAKNILYLQMNSLRSEDTAMYYCARHGNGYDPLWYFDVWGAGTTVTVSSEPKSSDKTHTCPPCPAPPAAAPSVFLFPPKPKDTLMISRTPEVTCVVVDVSHEDPEVKFNWYVDGVEVHNAKTKPREEQYNSTYRVVSVLTVLHQDWLNGKEYKCAVSNKALPAPIEKTISKAKGQPREPQVYTLPPSRDELTKNQVSLSCAVKGFYPSDIAVEWESNGQPENNYKTTPPVLDSDGSFFLVSKLTVDKSRWQQGNVFSCSVMHEALHNRFTQKSLSLSPG
Turning to B4, the binding result with Human PD-L1 full-length was “binds”. Moreover, the concentration for a half-maximal effect (EC50 (read off the curve)) in the test with human CD40 full-length was around 5 nM.
